From the DeepSol protein solubility set

Assay: soluble on expression in E. coli; label from the status in PepcDB or PDB records

Row | Sequence | soluble on expression in E. coli
1 | MGSDKIHHHHHHMKIAQVCPRFYPHIGGVETHVYEIASRIAKKFDVEVLTTDPGGKLPKVEEIDGLTVRRFKSLAPSEAYYFSPELYDYLKKNSSDYDVVHAHNYHAFPALFAALTKGKNKLIFTPHYHGSGHSFFRNVLHKPYKIFGRKIFKRADAIVCVSNYEKNLVLKNFKVAEDRTYVIPNGINLDEFKDIEKIKRNKESWKKTILYVGRVEKYKGLDYVVKSLKHLPDNFTLEVVGKGSYKSKIVEMAKKLDVIDRIRFYQDLSRKELIDRYAKADVLVLLSKHEAYGIVVAEALAAKTPCIVANTSALSEWIDNKNVFGIDYPINVSELARLIERVSNVKAGDMKLLDWDDVNERLIRIYSAKI | not soluble
2 | VGEVNLSARGNFTFARNEILEYDQVPQVYPWLEKKGTRLNSWKLYIADGLYTADDFNITGEGLNRQYELKPGVVSGLSSGVRPGDIKYKDLNGDGKIDSNDQMEDVGNPSVPEIVYGFGLNAEWKGAYVGIFFQGSGNTSTVLGASSNGAFFPFQWGVEESAVRSEVANRWTEQNPSQNVMFPRMHSTNYDNNTAASTWWLRNASFLRLKNIEVGYNFKEKTLKKIGIQALRVYLQGNNLCVWDDIKMWDPELGNTNGGFSYPLSRTFTFGLDFTF | not soluble
3 | MSLGSKIVVTGATGNVGTSVVRLLSEDPEVGTVLGLARRIPDWSPAKTEWAAVDLASEQSDLTSHFADADAVVHLAWAFQPTHDPATTWRTNVLGSIRVFEAVAAAGVPALVHASSVGAYSPGPKNHAVDESWPTHGWPDAAYCREKAYLERALDTFERDHPGIRVVRMRPAFLFKRESASEQRRIFGGRFLPGPAARPELLPFLPDVPGLRVQALHTDDAARAYRLAVRSADARGAFNLAAEPPVDAELLGELLGVRPVRLPRAAARSAIAAAWGMRLLPASPHLFDAVLRLPVMDCTRARVELGWGATRTATEVLEEFLRGLRQGAGADTEGHHHHHH | soluble
4 | MGSDKIHHHHHHMIVKDYRREFEALAKAYEKAGGDVSKFLDRRIASIIISGDKVIGLNGVEGVELTPYRIENGVQVDMRIKEGVVVEYPVHVCTGYLEKKGLQRVVFNIRLEKNAKAIFVAHCVFPWTEDFTHDALMNVELEEGAWMEYHDEHTHSETGSINLITRSIARVGERAVYRNTFTLVKTRIGTLRVFMDASLEKDAVGELYTKVKAVEDDDVEVKEILRLNGMGARGLAKTNAVAIDRAKVSVVNEVYGNAPHTRGHVECLEIAKGDGVDVRALPVLVVKNDSSELTHEASIGRVNAKQLETLMAKGLTEEEATEMIIKGILT | not soluble
5 | MNINRNKIVQLADTDTIENLTSALSQRLIADQLRLTTAESCTGGKLASALCAAEDTPKFYGAGFVTFTDQAKMKILSVSQQSLERYSAVSEKVAAEMATGAIERADADVSIAITGYGGPEGGEDGTPAGTVWFAWHIKGQNYTAVMHFAGDCETVLALAVRFALAQLLQLLL | not soluble
6 | MGSDKIHHHHHHMLWLLMTTGKCNLKCDYCGGSFPDNVVPYGIKYDINSVKKLIEKDKDSTIIFYGGEPLLNYKFVMAVLDNVRAKRYGIQTNGIAVRLLPERYWRKINVALLSIDGREEITNKHRGKGIYKAVLRSAKYLKDLGVETIARMTVTQDTDIFTDVMHLIDLGLFDKVHWQLDVIWSEEWDFKSWSFSYLNGIKRLTDYFLSELRKGRVVKIIPILGVISAHFFEGYKGSPCGAGYSSVTVTPDGRILSCPIAVREKWAELGNVNLGYRLLEDPLPDDCKRCEFKRYCGGRCLYAQKERYWGEEGFKAVDEVNKEYLRTVLSIIPEIERLIRDGYIRLSDLYYNPILDSTEIIP | not soluble
7 | MNKKHYLLYGSERYALAILRPLQAAIRARGDEAAWFFDGPGAEDLAADEQLLSVAQVRLWKPYAVITSSNAVPHFFPGVKVEVFHGFNAGKPRHVYSRGFFDLYCTTGPRDTAAFGELADRLGHFAVKQTGWPKIDPFMGEMSQALVPVRQPPVILYHSTFSPSWSAADILYDEIKRLSLRGEWRWIVTFHPKMNPDVVARYRALQSEHLCFSDNDNILELFPHVDMMCSDTSSALNEFLLTCKPVVTFKNRNPGPQLIDIDDPAQFESAIRRALSRPPELLSAIRAYADAIHPYWDGRSSERVLEAIDAFVAEGGRNRRTKPLNLWRKFKLRKRIGYWGPAWL | not soluble
8 | RGSGWFAGFPVYSWFFGRDGLWMALAANMVGLAGLTYEHTNMLLKYSDDGRIPHEIGLADDGDQGYTIGETKFNTMYMSIDSSPLWLLASASMENWDRSRFEERHLKKVFDFIASCDTDGDGLIENDFRRGLIGWPETWANIRNGKTVDVNALWIEVLRIFGYRFGYDEYQKIRDRYMSTFFAGANSVDFVDMEYHEIRSAMQFVPGIFMRNEAIRSRIKDLSAGMMTPWGIRSMSVYDPMYDGGYHTGTVWPLMTGWFVIAAYKNGLPDLAFNQMRTFVDLAFSADDPGRINETYDAMMPQPTGQFAQGWSSSMLLLSVLQGMLNIDPLS | not soluble
9 | MKHYLAIDIGGTAIKYGLISETGDLLEKEEMATEAYKGGPSILEKVKGLVKTYQDQMDLAGVAISSAGMVNPDEGEIFYAGPQIPNYAGTQFKKEIEETFGLPCEVENDVNCAGLAEAISGSAKDYPVALCLTIGTGIGGCLLFNSQVFHGSSHSACEVGYLHLSDGQFQDLASTTALVQEVVLAYGDDISQWDGRRIFEQAKAGDAICIAAISKQVDYLGQGIANICYVVNPNVVVLGGGIMAQKDYLADKLKTALDSYLVSSLAKKTQLKFASHGNNAGILGAYYHFKQKNERSCSFITLEKIENNLASS | not soluble
10 | MYAKSLNGDAFSNEAKQKAIELIKQDLGQIDLVVYSLASPVRKMPDTGELVRSALKPIGETYTSTAVDTNKDVIIEASVEPATEQEIADTVTVMGGQDWELWIQALEEAGVLAEGCKTVAYSYIGTELTWPIYWDGALGRAKMDLDRAATALNEKLAAKGGTANVAVLKSVVTQASSAIPVMPLYIAMVFKKMREQGVHEGCMEQIYRMFSQRLYKEDGSAPEVDDHNRLRLDDWELRDDIQQHCRDLWPQITTENLRELTDYDMYKEEFIKLFGFGIEGIDYDADVNPEVEFDVIDIE | not soluble
11 | MGHHHHHHSHMGVTCVSQMPVAEGKSVQQTVELLTRKLEMLGAEKQGTFCVDCETYHTAASTLGSQGQTGKLMYVMHNSEYPLSCFALFENGPCLIADTNFDVLMVKLKGFFQSAKASKIETRGTRYQYCDFLVKVGTVTMGPSARGISVEVEYGPCVVASDCWSLLLEFLQSFLGSHTPGAPAVFGNRHDAVYGPADTMVQYMELFNKIRKQQQVPVAGIR | soluble
12 | MGSDKIHHHHHHMPFENAPHLVFWEVTKACPLSCKHCRANAIDKPLPGELSTEESKKLLEDIARFGKVVIVFTGGDPLSRSDIFEIMEYAKSLGLIVSIAPSPSYRLRDETMKMISNYARYMSISIDGATSQTHDWLRGLGSYNYALRGIELGLKYGIQVQVNTLVWKKSYSELPFLVKLLKELGVKVWEVFFLIPVGRGVIELDIPKEKYKDVIDFLVETTRYDLVVRTVEAPFFRRAKLEYTPSTIKSNELVSKLRELLGEPVKDVDKSVLPTRDGSGVIFIGYNGDVYPSGFLPLYLGNVRKESIVDIYRKSEVLKIIKDGRFDGKCGVCKFNNICGGSRARAFAVYNNPFAEDPMCPY | not soluble
13 | AGKATANAPTDAAITAASDFAALEKACAGRLGVTLLDTASGRRIGHRQDERFPMCSTFKSMLAATVLSQAERMPALLDRRVPVGEADLLSHAPVTRRHAGKDMTVRDLCRATIITSDNTAANLLFGVVGGPPAVTAFLRASGDTVSRSDRLEPELNSFAKGDPRDTTTPAAMAATLQRVVLGEVLQPASRQQLADWLIDNETGDACLRAGLGKRWRVGDKTGSNGEDARNDIAVLWPVAGGAPWVLTAYLQAGAISYEQRASVLAQVGRIADRLIG | soluble
14 | GMSSKAEKDIKWGIAPIGWRNDDIPSIGKDNNLQQLLSDIVVAGFQGTEVGGFFPGPEKLNYELKLRNLEIAGQWFSSYIIRDGIEKASEAFEKHCQYLKAINAPVAVVSEQTYTIQRSDTANIFKDKPYFTDKEWDEVCKGLNHYGEIAAKYGLKVAYHHHMGTGIQTKEETDRLMANTDPKLVGLLYDTGHIAVSDGDYMALLNAHIDRVVHVHFKDVRRSKEEECRAKGLTFQGSFLNGMFTVPGDGDLDFKPVYDKLIANNYKGWIVVEAEQDPSKANPLEMAQIAHRYIKQHLIEN | soluble
15 | MGTPVVWEGNIGNPPEHKSFPNGNNEPRQLLRLNVMFDNSIPDGSGGYKDRGGFWANVEWWHPDAERFAQLFSKGMRVVVTGRAIMDTWKDKETGDDVWALKVEANRVAILPHRVNQVTMTQSNNTGQRQNAQQNNRPERQQNSAQQPGQHTDDLSHYGNGFDDDIPVLEHHHHHH | soluble
